Measurements reported in PMC7078746, “Processing of the SARS-CoV pp1a/ab nsp7–10 region” (Biochemical Journal, 2020).

T1: SARS-CoV nsp9 (SARS-CoV), P0C6X7
T1 chain: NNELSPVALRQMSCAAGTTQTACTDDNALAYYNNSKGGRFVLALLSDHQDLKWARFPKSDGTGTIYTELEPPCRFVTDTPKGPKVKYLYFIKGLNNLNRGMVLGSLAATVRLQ


What was measured:
[1] = target: T1, SARS-CoV nsp9 (SARS-CoV), P0C6X7; assay: native MS; settings: remark: other sources report otherwise
native MS = target: the molecule itself; assay: native MS

Binder | mass fraction of dimers [1] [%] | mass fraction of monomers [1] [%] | stoichiometry N [1] | stoichiometry N (native MS)
SARS-CoV nsp9, P0C6X7 (natural protein) NNELSPVALRQMSCAAGTTQTACTDDNALAYYNNSKGGRFVLALLSDHQDLKWARFPKSDGTGTIYTELEPPCRFVTDTPKGPKVKYLYFIKGLNNLNRGMVLGSLAATVRLQ | 25 | 75 | 2 | 
SARS-CoV main protease M^pro with authentic ends (enzyme, also called 3CL^pro; nsp5) SGFRKMAFPSGKVEGCMVQVTCGTTTLNGLWLDDTVYCPRHVICTAEDMLNPNYEDLLIRKSNHSFLVQAGNVQLRVIGHSMQNCLLRLKVDTSNPKTPKYKFVRIQPGQTFSVLACYNGSPSGVYQCAMRPNHTIKGSFLNGSCGSVGFNIDYDCVSFCYMHHMELPTGVHAGTDLEGKFYGPFVDRQTAQAAGTDTTITLNVLAWLYAAVINGDRWFLNRFTTTLNDFNLVAMKYNYEPLTQDHVDILGPLSAQTGIAVLDMCAALKELLQNGMNGRTILGSTILEDEFTPFDVVRQCSGVTFQ |  |  |  | 2
